{
  "source": "patent US20080207540",
  "about": "“Method For the Identification of Compounds Modulating Reverse Transport of Cholesterol” (Genfit, published 2008)",
  "binders": {"B1": {"name": "FXRRE_ApoA1_h_1 (dsDNA)", "DNA 1": "CAGAGCTGATCCTTGAACTCTTAAGTT", "DNA 2": "AACTTAAGAGTTCAAGGATCAGCTCTG"}, "B2": {"name": "hCyp7a mut (dsDNA)", "DNA 1": "GATCTCTTAGTTCAATTCCAGTTAG", "DNA 2": "GATCCTAACTGGAATTGAACTAAGA"}, "B3": {"name": "LRHRE_ApoA1_h_8 (-180/-158) (dsDNA)", "DNA 1": "GATCCAGCTTGCTGTTTGCCCACTCTATA", "DNA 2": "GATCTATAGAGTGGGCAAACAGCAAGCTG"}, "B4": {"name": "LRHRE_ApoA1_h_7 (-144/-122) (dsDNA)", "DNA 1": "GATCCGGGACAGAGCTGATCCTTGAACTA", "DNA 2": "GATCTAGTTCAAGGATCAGCTCTGTCCCG"}, "B5": {"name": "LRHRE_ApoA1_h_6 (-178/-145) (dsDNA)", "DNA 1": "GATCCTTGCCCACTCTATTTGCCCAGCCCCAA", "DNA 2": "GATCTTGGGGCTGGGCAAATAGAGTGGGCAAG"}, "B6": {"name": "LRHRE_ApoA1_h_5 (-191/-171) (dsDNA)", "DNA 1": "GATCCGCAGCCCCCGCAGCTTGCTGTA", "DNA 2": "GATCTACAGCAAGCTGCGGGGGCTGCG"}, "B7": {"name": "hCyp7a wt (dsDNA)", "DNA 1": "GATCTCTTAGTTCAAGGCCAGTTAG", "DNA 2": "GATCCTAACTGGCCTTGAACTAAGA"}, "B8": {"name": "LRHRE_ApoA1 mut (dsDNA)", "DNA 1": "GATCCGGGACAGAGCTGATTGTTGAACTA", "DNA 2": "GATCTAGTTCAACAATCAGCTCTGTCCCG"}, "B9": {"name": "FXRRE_ApoA1_h_1_mut (dsDNA)", "DNA 1": "CAGAGCTGATCCTTGAAGTGTTAAGTT", "DNA 2": "AACTTAACACTTCAAGGATCAGCTCTG"}},
  "key": {"FXR [1]": {"target": "T1, FXR (UniProt Q96RI1 Q96RI1:1-486)", "T1 sequence": "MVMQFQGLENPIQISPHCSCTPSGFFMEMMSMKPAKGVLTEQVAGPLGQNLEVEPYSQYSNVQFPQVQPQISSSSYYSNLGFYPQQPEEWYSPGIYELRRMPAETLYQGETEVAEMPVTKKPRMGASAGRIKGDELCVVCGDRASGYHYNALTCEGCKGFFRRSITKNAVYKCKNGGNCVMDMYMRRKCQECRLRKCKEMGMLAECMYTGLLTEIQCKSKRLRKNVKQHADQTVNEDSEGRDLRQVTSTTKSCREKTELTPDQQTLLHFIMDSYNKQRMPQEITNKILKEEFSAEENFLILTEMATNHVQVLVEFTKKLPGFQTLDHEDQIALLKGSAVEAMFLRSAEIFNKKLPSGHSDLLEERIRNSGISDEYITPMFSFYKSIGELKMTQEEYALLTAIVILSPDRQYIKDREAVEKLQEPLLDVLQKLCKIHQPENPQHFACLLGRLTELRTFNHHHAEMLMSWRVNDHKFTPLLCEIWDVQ", "assay": "EMSA; specific complex", "conditions": "tags: none stated; TNT-T7 rabbit reticulocyte lysate, vector pCDNA3-FXR; label: 32P"}, "LRH-1 (hLRH-1, NR5A2) [2]": {"target": "T2, LRH-1 (hLRH-1, NR5A2) (Homo sapiens, UniProt O00482 O00482:1-541)", "T2 sequence (O00482 whole entry, one chain of several)": "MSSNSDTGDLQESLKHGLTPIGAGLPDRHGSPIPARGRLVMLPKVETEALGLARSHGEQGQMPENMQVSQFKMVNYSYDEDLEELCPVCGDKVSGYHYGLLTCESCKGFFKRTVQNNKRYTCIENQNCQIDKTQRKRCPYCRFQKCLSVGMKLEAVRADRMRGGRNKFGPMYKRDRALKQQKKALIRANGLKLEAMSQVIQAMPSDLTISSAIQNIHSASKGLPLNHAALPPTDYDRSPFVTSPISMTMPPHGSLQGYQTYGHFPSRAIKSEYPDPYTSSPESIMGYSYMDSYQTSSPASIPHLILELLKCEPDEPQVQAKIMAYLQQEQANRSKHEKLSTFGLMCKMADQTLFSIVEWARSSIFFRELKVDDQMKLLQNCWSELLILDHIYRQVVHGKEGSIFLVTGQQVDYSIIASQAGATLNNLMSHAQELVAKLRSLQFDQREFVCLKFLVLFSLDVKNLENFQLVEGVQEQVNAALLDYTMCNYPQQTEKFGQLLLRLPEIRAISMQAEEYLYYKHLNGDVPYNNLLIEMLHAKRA", "assay": "EMSA; specific complex", "conditions": "tags: none stated; TNT-T7 rabbit reticulocyte lysate, vector pCI-hLRH-1; label: 32P"}, "LRH-1 (hLRH-1, NR5A2) [3]": {"target": "T2, LRH-1 (hLRH-1, NR5A2)", "assay": "EMSA; no complex; also no displacement as competitor (FIG. 4B)", "conditions": "tags: none stated; TNT-T7 rabbit reticulocyte lysate, vector pCI-hLRH-1; label: 32P", "procedure": "(§1) 2 μl of rabbit reticulocyte lysate programmed by hLRH-1 were incubated for 15 minutes at room temperature in a final volume of 20 μl of buffer containing 10 mM HEPES, 2.5 mM MgCl₂, 10% glycerol, 2.5 mg/ml BSA, 50 mM NaCl and 0.5 mM DTT with 2.5 μg of polydl-dC and 1 μg of herring sperm DNA in the presence of the labelled double-stranded oligonucleotides (0.5 ng). The complexes were then separated by non-denaturing gel electrophoresis in TBE 0.25X buffer.\n(§2) In contrast, no complex was detected in the presence of labelled double-stranded oligonucleotide corresponding to the mutated response element (hCyp7a mut). […] On the other hand, a specific LRH-1/DNA complex formed with a labelled double-stranded oligonucleotide corresponding to fragment −144/−122 (LRHRE_ApoA1_h_{—}7) of the human apo AI gene promoter. Said fragment straddles regions B and C of the human apo AI promoter and contains, on the antisense strand, the sequence TCAAGGATC similar to the consensus sequence TCAAGGTCA of an LRH-1 response element."}, "LRH-1 (hLRH-1, NR5A2) [4]": {"target": "T2, LRH-1 (hLRH-1, NR5A2)", "assay": "EMSA; no complex", "conditions": "tags: none stated; TNT-T7 rabbit reticulocyte lysate, vector pCI-hLRH-1; label: 32P", "procedure": "as §1, §2"}, "FXR [5]": {"target": "T1, FXR", "assay": "EMSA; no complex", "conditions": "tags: none stated; TNT-T7 rabbit reticulocyte lysate, vector pCDNA3-FXR; label: 32P"}, "LRH-1 (hLRH-1, NR5A2) [6]": {"target": "T2, LRH-1 (hLRH-1, NR5A2)", "assay": "EMSA; specific complex; low affinity site, as competitor only partially displaces Cyp7a probe (FIG. 4A)", "conditions": "tags: none stated; TNT-T7 rabbit reticulocyte lysate, vector pCI-hLRH-1; label: 32P", "procedure": "as §1, §2"}, "LRH-1 (hLRH-1, NR5A2) [7]": {"target": "T2, LRH-1 (hLRH-1, NR5A2)", "assay": "EMSA; 2.5 mM MgCl2, 50 mM NaCl, room temperature; higher affinity than apo AI -144/-122 by competition (Example 4)", "conditions": "tags: none stated; TNT-T7 rabbit reticulocyte lysate, vector pCI-hLRH-1; label: 32P", "procedure": "as §1, §2"}, "LRH-1 (hLRH-1, NR5A2) [8]": {"target": "T2, LRH-1 (hLRH-1, NR5A2)", "assay": "EMSA; no complex; no displacement as competitor (FIG. 4A)", "conditions": "tags: none stated; TNT-T7 rabbit reticulocyte lysate, vector pCI-hLRH-1; label: 32P", "procedure": "as §1, §2"}, "FXR [9]": {"target": "T1, FXR", "assay": "EMSA; complex lost", "conditions": "tags: none stated; TNT-T7 rabbit reticulocyte lysate, vector pCDNA3-FXR; label: 32P"}, "LRH-1 (hLRH-1, NR5A2) [10]": {"target": "T2, LRH-1 (hLRH-1, NR5A2)", "assay": "EMSA; FXR site mutation does not affect LRH-1 binding", "conditions": "tags: none stated; TNT-T7 rabbit reticulocyte lysate, vector pCI-hLRH-1; label: 32P"}},
  "data": [
    {"binder": "B1", "values": [
      {"measurement": "binding result", "setting": "FXR [1]", "result": "binds"},
      {"measurement": "binding result", "setting": "LRH-1 (hLRH-1, NR5A2) [2]", "result": "binds"}
    ]},
    {"binder": "B2", "values": [
      {"measurement": "binding result", "setting": "LRH-1 (hLRH-1, NR5A2) [3]", "result": "no binding"}
    ]},
    {"binder": "B3", "values": [
      {"measurement": "binding result", "setting": "LRH-1 (hLRH-1, NR5A2) [4]", "result": "no binding"}
    ]},
    {"binder": "B4", "values": [
      {"measurement": "binding result", "setting": "FXR [5]", "result": "no binding"},
      {"measurement": "binding result", "setting": "LRH-1 (hLRH-1, NR5A2) [6]", "result": "binds"}
    ]},
    {"binder": "B5", "values": [
      {"measurement": "binding result", "setting": "LRH-1 (hLRH-1, NR5A2) [4]", "result": "no binding"}
    ]},
    {"binder": "B6", "values": [
      {"measurement": "binding result", "setting": "LRH-1 (hLRH-1, NR5A2) [4]", "result": "no binding"}
    ]},
    {"binder": "B7", "values": [
      {"measurement": "binding result", "setting": "LRH-1 (hLRH-1, NR5A2) [7]", "result": "binds"}
    ]},
    {"binder": "B8", "values": [
      {"measurement": "binding result", "setting": "FXR [5]", "result": "no binding"},
      {"measurement": "binding result", "setting": "LRH-1 (hLRH-1, NR5A2) [8]", "result": "no binding"}
    ]},
    {"binder": "B9", "values": [
      {"measurement": "binding result", "setting": "FXR [9]", "result": "no binding"},
      {"measurement": "binding result", "setting": "LRH-1 (hLRH-1, NR5A2) [10]", "result": "binds"}
    ]}
  ]
}
